Source: patent US20050196758

Target: T1, trans-2-butenoyl-ACP (acyl carrier protein carrying the trans-2-butenoyl group), P0A6A8
T1 chain: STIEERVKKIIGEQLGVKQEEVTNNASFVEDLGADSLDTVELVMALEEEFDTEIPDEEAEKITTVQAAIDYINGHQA

B1: His-tagged FabK (enoyl-ACP reductase II) of Streptococcus pneumoniae (protein)
chain: MKTRITELLKIDYPIFQGGMAWVADGDLAGAVSKAGGLGIIGGGNAPKEVVKANIDKIKSLTDKPFGVNIMLLSPFVEDIVDLVIEEGVKVVTTGAGNPSKYMERFHEAGIIVIPVVPSVALAKRMEKIGADAVIAEGMEAGGHIGKLTTMTLVRQVATAISIPVIAAGGIADGEGAAAGFMLGAEAVQVGTRFVVAKESNAHPNYKEKILKARDIDTTISAQHFGHAVRAIKNQLTRDFELAEKDAFKQEDPDLEIFEQMGAGALAKAVVHGDVDGGSVMAGQIAGLVSKEETAEEILKDLYYGAAKKIQEEASRWTGVVRND
specific activity (enoyl-ACP reductase activity, coupled in vitro assay, butyryl-ACP formation by gel electrophoresis): 66±4 nmole product formed/min/mg FabK
